Experimental findings from patent US4415667A, “Carboxypeptidase a gamma and process for preparing same” (Eisai Co., Ltd., priority 1981, dated 1983) are described below.

Substrate in this series: O=C(CNC(=O)OCc1ccccc1)N[C@@H](Cc1ccccc1)C(=O)O
The experiment in a line: Michaelis constant and maximum reaction velocity, hydrolysis of Nα-carbobenzoxyglycyl-L-phenylalanine (ninhydrin method). It is filed as biochemical, porcine. The note with it: other: substrate concentration varied from 0.02 to 0.1 M; 25.0 °C. The protocol:
The enzyme activity of the enzyme of the invention for Nα-carbobenzoxyglycyl-L-phenylalanine substrate was investigated by the ninhydrin method. […] After the combined solutions stood at 25° C. for 5 minutes, 0.2 ml of an enzyme solution was added, and the solution was incubated at 25° C. for 15 minutes. The reaction was stopped by adding 1 ml of a 3 M acetate buffer solution (pH 5.0) in an ice bath. The ninhydrin reagent was added to effect color development according to the Yemn & Cocking method. The enzyme activity for a casein substrate was investigated by the Kunitz method. Enzyme activities of the enzyme of the invention for benzoylglycyl-L-arginine and elastin were also investigated by the respective methods above. Enzyme activity was observed only for Nα-carbobenzoxyglycyl-L-phenylalanine and casein.
(9) Michaelis constant and maximum reaction velocity

B1: porcine pancreas carboxypeptidase Aγ (new species, obtained in Example 1; NH2-terminal sequence beginning with Asn) (Sus scrofa) (protein)
chain: NYATYHTLEEIYDFMDILVAEHPQLVSKLQIGSSYEGRPIYVLKFSTGGNNRPAIWIDTGIHSREWVTQASGVWFAKKITEDYGQDPAFTAILDNLDIFLEIVTNPDGFAFTHSENRMWRKTRSRTSGSFCVGVDPNRNWDAGFGGAGASSNPCSETYHGKFPNSEVEVKSIVDFVNDHGNIKAFISIHSYSQLLLYPYGYKTEAPADKDELDQISKSAVAALTSLYGTKFQYGSIITTIYQASGGTIDWTYNQGIKYSFSFELRDTGRYGFLLPASQIIPTAQETWLALLTIMEHTLNHPY
notes: from tissue; host or cells: porcine pancreas (from the unit heads)
Regarding B1, the Km was 20 mM and the Vmax came out at 235.5 µmol/min/mg.

The term Km denotes the substrate concentration at which the rate is half of its maximum. As usually defined, the Vmax is the rate approached at saturating substrate.
